Target: human recombinant adrenomedullin receptor (CRLR+RAMP3) (human)

- IC50 (read off the curve); cAMP HTRF assay, agonist 5.63 nM hADM: 0.2 µM
Substance: antagonist (human ADM 22-52) (from UniProt P35318) (peptide)
